Test results as given in patent US20160017018A1 (GENERAL HOSPITAL, published 2016).

Target: T1, human CD80 (human, UniProt P33681 35-288)
T1 construct: whole, on cells; also called human CD80-expressing acute myelogenous leukemia cell line (Cat#CRL-2740, ATCC)
T1 sequence (looked up): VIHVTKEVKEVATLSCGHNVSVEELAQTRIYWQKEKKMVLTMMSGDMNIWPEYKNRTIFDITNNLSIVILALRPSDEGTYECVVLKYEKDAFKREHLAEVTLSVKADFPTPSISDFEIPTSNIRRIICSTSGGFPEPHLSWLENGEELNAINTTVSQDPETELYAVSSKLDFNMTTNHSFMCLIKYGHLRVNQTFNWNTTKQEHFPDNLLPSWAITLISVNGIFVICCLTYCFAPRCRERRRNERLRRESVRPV
Assay: flow cytometry on human CD80-expressing AML cells; grade = binding percentage of the wild-type, ++++ (100%)
Source text: FIGS. 1A-C. […] PE-SA only; biotinylated protein control [porcine CD3εγ ectodomain single-chain fusion protein (pCD3εγ)] […] B) Bar graph presentation of the mean fluorescence intensity (MFI) from flow cytometry binding analysis data as described in A). Different concentrations of biotinylated pCD3εγ were used as non-specific fluorescence control. Error bars are included based on the calculated standard deviation. […] The concentration of the competitor is indicated. All figures of 1A-C are representatives of multiple individual experiments.

B1: Non-N-Glycosylated soluble human CTLA-4-6×His (receptor)
chain: KAMHVAQPAVVLASSRGIASFVCEYASPGKATEVRVTVLRQADSQVTEVCAATYMMGNELTFLDDSICTGTSSGNQVALTIQGLRAMDTGLYICKVELMYPPPYYLGIGAGTQIYVIDPEPCPDSDHHHHHH
modifications: biotinylated for the direct binding stain (sites not given); unlabeled in the blocking assay
notes: Expressed in Pichia pastoris; also called wild-type soluble human CTLA-4; human CTLA-4 wild-type
  binding result: binds
